Test results published in patent US20220143148A1, “COMPOSITIONS AND METHODS FOR MODULATING CGRP SIGNALING TO REGULATE INTESTINAL INNATE LYMPHOID CELLS” (The Broad Institute, Inc., priority 2019, published 2022).

Test system: small intestinal immune cells
Test: Droplet-based scRNA-seq of small intestinal immune cells (LP and PP), OVA vs PBS, clustering and differential expression
Type: in vivo, mouse
Conditions: PP
Source text: To comprehensively characterize small intestinal immune cells, Applicants generated scRNA-Seq profiles for 58,067 immune cells collected from lamina propria (LP) and Peyer's patch (PP) regions at steady state and after induction of a type 2 inflammatory reaction to ovalbumin (OVA) (Brandt et al., 2003) (FIGS. 1A and 8A). To ensure sufficient representation of rare cells, Applicants combined a normalization strategy—removing by flow sorting either a portion of IgD+ naïve B cells, which are the most abundant cell type in PPs, or all CD19+ and CD3+ T cells (FIG. 8B, Methods)—with profiling of a sufficiently large number of cells number (P>0.99 to recover at least 15 cells from each cluster, Methods) by massively parallel scRNA-seq (Haber et al., 2017) (Methods). Applicants obtained 36,797 and 21,270 high quality cells passing initial filtering (Methods) from PP and LP regions, respectively.
Overall, Applicants annotated 27 cell subsets across the two compartments, spanning T cells, B cells, ILCs, dendritic cells (DCs), myeloid cells and stromal cells, in frequencies ranging from 0.07% to 14%. Briefly, Applicants first partitioned the cells from the PP regions by unsupervised clustering (Methods) into 46 clusters, retained the 97% of cells that were robustly assigned cell identities in each cluster (Methods), assigned the cells from the LP regions to the 46 clusters using a classifier (Methods), and visualized the data with scvis (Ding et al., 2018), a deep generative model-based method (FIGS. 1B and 8C, Methods). Next, Applicants identified genes that were differentially expressed between the cells in each cluster and the remaining cells (Table 1, Methods), as well as between pairs of clusters (Table 2), to elucidate identities of similar cell types/states. Applicants excluded from downstream analysis clusters mostly consisting of contaminants from epithelium, likely doublets, or cells with a small number of Unique Molecular Identifiers (UMIs) (FIGS. 1C and 8D), or lacking distinct markers (Methods). Altogether, Applicants retained 27 clusters spanning 85% of the cells and each associated with distinct marker genes (FIG. 8E, Methods).
To induce allergic reaction to OVA, 6 to 7 weeks old mice were sensitized twice, two weeks apart, with 50 μg of OVA plus 1 mg of aluminum potassium sulfate adjuvant via intraperitoneal injection. Two weeks later, mice were orally administered with 50 mg of OVA on every other day for a total of five times. 1 μg of α-CGRP peptide was administered simultaneously when indicated. Mice were deprived of food for 3-4 hours in cages with wood chip bedding for limiting antigen degradation in the stomach before each intragastric challenge.
Isolation of cells from Peyer's patches (PPs). Peyer's patches (PPs) were carefully dissected from the small intestine under a stereo microscope using a fine scissor, pierced once with a fine forcep. Tissues were digested in freshly made digestion buffer (RPMI-1640 containing 100 μg/ml Liberase™ and 50 μg/ml DNase I at 37° C. on a roto-mixer. After 15 min, tissues were very gently mixed using a 1 ml pipette. The supernatant was collected and added to ice-cold MACS buffer (pH 7.4; PBS plus 2% FCS and 2 mM EDTA). Pre-warmed (37° C.) fresh digestion buffer was added to the remaining tissues. After rotation at 37° C. for 15 min, the mixture was vigorously mixed using a 1 ml pipette for 1 min. Supernatants from the two steps were combined and passed through 70 μm filters and stained for FACS (below).
Isolation of cells from the lamina propria (LP). The small intestines were opened longitudinally and washed in ice-cold PBS. For scRNA-seq, roughly 0.5 cm of fragments from each of the distal, middle and proximal regions without visible PPs were collected. Epithelial cells were dissociated by tissue rotation in pre-warmed (37° C.) PBS containing 10 mM EDTA at 37° C. for 15 min, followed by additional incubation on ice for 15 min. Tissues were then shaken vigorously. […]

B1: OVA (protein, UniProt P01012 2-386, looked up)
Ovalbumin: GSIGAASMEFCFDVFKELKVHHANENIFYCPIAIMSALAMVYLGAKDSTRTQINKVVRFDKLPGFGDSIEAQCGTSVNVHSSLRDILNQITKPNDVYSFSLASRLYAEERYPILPEYLQCVKELYRGGLEPINFQTAADQARELINSWVESQTNGIIRNVLQPSSVDSQTAMVLVNAIVFKGLWEKAFKDEDTQAMPFRVTEQESKPVQMMYQIGLFRVASMASEKMKILELPFASGTMSMLVLLPDEVSGLEQLESIINFEKLTEWTSSNVMEERKIKVYLPRMKMEEKYNLTSVLMAMGITDVFSSSANLSGISSAESLKISQAVHAAHAEINEAGREVVGSAEAGVDAASVSEEFRADHPFLFCIKHIATNAVLFFGRCVSP
For B1, the “Ptprcap LN (average fold change)” value (cluster ID 8, OVA vs PBS) was 0.276, the “Rab35 LN (average fold change)” value (cluster ID 8, OVA vs PBS) was 0.478 and the “Rac2 LN (average fold change)” value (cluster ID 8, OVA vs PBS) was 0.169. For the same molecule, the “Rel LN (average fold change)” value (cluster ID 8, OVA vs PBS) was −0.595, the “Rgs1 LN (average fold change)” value (cluster ID 8, OVA vs PBS) was 0.795 and the “Rnf125 LN (average fold change)” value (cluster ID 8, OVA vs PBS) was −0.483. For the same molecule, the “Rnf157 LN (average fold change)” value (cluster ID 8, OVA vs PBS) was −0.362, the “Rora LN (average fold change)” value (cluster ID 8, OVA vs PBS) was −0.455 and the “Rrad LN (average fold change)” value (cluster ID 8, OVA vs PBS) was −0.602. For the same molecule, the “Rsrp1 LN (average fold change)” value (cluster ID 8, OVA vs PBS) was 0.318, the “Samd9l LN (average fold change)” value (cluster ID 8, OVA vs PBS) was 0.479 and the “Samsn1 LN (average fold change)” value (cluster ID 8, OVA vs PBS) was −0.280. The “Sh2d1a LN (average fold change)” value (cluster ID 8, OVA vs PBS) was 0.388, the “Sik1 LN (average fold change)” value (cluster ID 8, OVA vs PBS) was −0.527 and the “Skil LN (average fold change)” value (cluster ID 8, OVA vs PBS) was −0.410. The “Sla LN (average fold change)” value (cluster ID 8, OVA vs PBS) was 0.486, the “Slfn2 LN (average fold change)” value (cluster ID 8, OVA vs PBS) was 0.342 and the “Sp100 LN (average fold change)” value (cluster ID 8, OVA vs PBS) was 0.330. The “Taf10 LN (average fold change)” value (cluster ID 8, OVA vs PBS) was −0.372, the “Tfam LN (average fold change)” value (cluster ID 8, OVA vs PBS) was −0.555 and the “Tgif1 LN (average fold change)” value (cluster ID 8, OVA vs PBS) was −0.580. For the same molecule, the “Tm6sf1 LN (average fold change)” value (cluster ID 8, OVA vs PBS) was 0.360, the “Traf1 LN (average fold change)” value (cluster ID 8, OVA vs PBS) was −0.355 and the “Tsc22d3 LN (average fold change)” value (cluster ID 8, OVA vs PBS) was 0.472. For the same molecule, the “Tuba4a LN (average fold change)” value (cluster ID 8, OVA vs PBS) was −0.361, the “Txndc5 LN (average fold change)” value (cluster ID 8, OVA vs PBS) was 0.592 and the “Txnip LN (average fold change)” value (cluster ID 8, OVA vs PBS) was 1.190. For the same molecule, the “Ube2s LN (average fold change)” value (cluster ID 8, OVA vs PBS) was −0.248, the “VgIl4 LN (average fold change)” value (cluster ID 8, OVA vs PBS) was −0.452 and the “Vps37b LN (average fold change)” value (cluster ID 8, OVA vs PBS) was −0.178. For the same molecule, the “Zc3h12a LN (average fold change)” value (cluster ID 8, OVA vs PBS) was −0.680, the “Zfp36l2 LN (average fold change)” value (cluster ID 8, OVA vs PBS) was 0.382 and the “Zfp512 LN (average fold change)” value (cluster ID 8, OVA vs PBS) was 0.523. For the same molecule, the “AC125149.3 percentage of expressing cells in OVA-treated group” value (cluster ID 9) was 0.619, the “Actg1 percentage of expressing cells in OVA-treated group” value (cluster ID 9) was 1 and the “Apobec1 percentage of expressing cells in OVA-treated group” value (cluster ID 9) was 0.86. For the same molecule, the “Basp1 percentage of expressing cells in OVA-treated group” value (cluster ID 9) was 0.871, the “Cdk1 percentage of expressing cells in OVA-treated group” value (cluster ID 9) was 0.478 and the “Cks1brt percentage of expressing cells in OVA-treated group” value (cluster ID 9) was 0.262. The “Ddit4 percentage of expressing cells in OVA-treated group” value (cluster ID 9) was 0.241, the “Eif2ak3 percentage of expressing cells in OVA-treated group” value (cluster ID 9) was 0.384 and the “Hspa8 percentage of expressing cells in OVA-treated group” value (cluster ID 9) was 0.995. The “Igha percentage of expressing cells in OVA-treated group” value (cluster ID 9) was 0.566, the “Ighg3 percentage of expressing cells in OVA-treated group” value (cluster ID 9) was 0.211 and the “Il2 percentage of expressing cells in OVA-treated group” value (cluster ID 9) was 0.244. For the same molecule, the “Lnx2 percentage of expressing cells in OVA-treated group” value (cluster ID 9) was 0.191, the “Malat1 percentage of expressing cells in OVA-treated group” value (cluster ID 9) was 1 and the “Mcpt1 percentage of expressing cells in OVA-treated group” value (cluster ID 9) was 0.156. The “Narf percentage of expressing cells in OVA-treated group” value (cluster ID 9) was 0.441, the “Nme2 percentage of expressing cells in OVA-treated group” value (cluster ID 9) was 0.4 and the “Rsrp1 percentage of expressing cells in OVA-treated group” value (cluster ID 9) was 0.796. The “Tsc22d3 percentage of expressing cells in OVA-treated group” value (cluster ID 9) was 0.669, the “Tubb5 percentage of expressing cells in OVA-treated group” value (cluster ID 9) was 0.966 and the “Uba52 percentage of expressing cells in OVA-treated group” value (cluster ID 9) was 0.996. For the same molecule, the “Ubb percentage of expressing cells in OVA-treated group” value (cluster ID 9) was 0.998, the “Wdr89 percentage of expressing cells in OVA-treated group” value (cluster ID 9) was 0.993 and the “Zfp36l2 percentage of expressing cells in OVA-treated group” value (cluster ID 9) was 0.758. For the same molecule, the “AC125149.3 LN (average fold change)” value (cluster ID 9, OVA vs PBS) was 0.342, the “Actg1 LN (average fold change)” value (cluster ID 9, OVA vs PBS) was −0.161 and the “Apobec1 LN (average fold change)” value (cluster ID 9, OVA vs PBS) was 0.201. For the same molecule, the “Basp1 LN (average fold change)” value (cluster ID 9, OVA vs PBS) was −0.559, the “Cdk1 LN (average fold change)” value (cluster ID 9, OVA vs PBS) was −0.396 and the “Cks1brt LN (average fold change)” value (cluster ID 9, OVA vs PBS) was 1.033. For the same molecule, the “Ddit4 LN (average fold change)” value (cluster ID 9, OVA vs PBS) was 0.791, the “Eif2ak3 LN (average fold change)” value (cluster ID 9, OVA vs PBS) was 0.581 and the “Hspa8 LN (average fold change)” value (cluster ID 9, OVA vs PBS) was −0.426. For the same molecule, the “Igha LN (average fold change)” value (cluster ID 9, OVA vs PBS) was 0.227, the “Ighg3 LN (average fold change)” value (cluster ID 9, OVA vs PBS) was 1.831 and the “Il2 LN (average fold change)” value (cluster ID 9, OVA vs PBS) was 0.918. The “Lnx2 LN (average fold change)” value (cluster ID 9, OVA vs PBS) was 0.811, the “Malat1 LN (average fold change)” value (cluster ID 9, OVA vs PBS) was −0.269 and the “Mcpt1 LN (average fold change)” value (cluster ID 9, OVA vs PBS) was 2.708. For the same molecule, the “Narf LN (average fold change)” value (cluster ID 9, OVA vs PBS) was 0.449, the “Nme2 LN (average fold change)” value (cluster ID 9, OVA vs PBS) was 0.703 and the “Rsrp1 LN (average fold change)” value (cluster ID 9, OVA vs PBS) was −0.274.
